Source: patent publication US20260132182A1 (published 2026)
Starred links: 1 amine or outer side, 2 acyl side, 3 side chain; linkers in the order of their positions; H or OH if unused. Non-standard residues stand in square brackets, D forms with d. Groups on a side chain read outwards from the residue. *: point of attachment. Hexadecanoyl(16-SO3H) = O=C(CCCCCCCCCCCCCCCS(=O)(=O)O)*; C20 diacid = O=C(O)CCCCCCCCCCCCCCCCCCC(=O)*; C18 diacid = O=C(O)CCCCCCCCCCCCCCCCC(=O)*; C16 diacid = O=C(O)CCCCCCCCCCCCCCC(=O)*; γGlu = O=C(O)[C@H](CCC(=O)[*:2])N[*:1]; εLys = N[C@@H](CCCCN[*:1])C(=O)[*:2]; AEEA = NCCOCCOCC(=O)O; Aib = CC(C)(N)C(=O)O; Ahx = NCCCCCC(=O)O

Assays:
human GLP-1 receptor = human GLP-1 receptor (human, UniProt P43220 24-463); test: cell-based or functional assay
[1] = target: T1, human amylin-3 (a) receptor (human, UniProt P30988 25-474; O60896 24-148); test: cell-based or functional assay
T1 sequence (looked up) 1: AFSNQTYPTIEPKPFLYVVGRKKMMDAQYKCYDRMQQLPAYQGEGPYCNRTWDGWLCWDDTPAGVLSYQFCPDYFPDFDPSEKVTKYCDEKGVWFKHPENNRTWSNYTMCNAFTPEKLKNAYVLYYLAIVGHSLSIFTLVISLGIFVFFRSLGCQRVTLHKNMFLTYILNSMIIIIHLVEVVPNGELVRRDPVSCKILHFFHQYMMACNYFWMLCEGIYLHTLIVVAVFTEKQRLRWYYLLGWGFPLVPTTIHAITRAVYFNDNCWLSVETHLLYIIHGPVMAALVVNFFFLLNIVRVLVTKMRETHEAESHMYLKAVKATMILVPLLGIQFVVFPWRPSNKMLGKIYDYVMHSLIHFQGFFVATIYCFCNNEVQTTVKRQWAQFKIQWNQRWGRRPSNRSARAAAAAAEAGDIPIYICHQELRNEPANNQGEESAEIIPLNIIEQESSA
T1 sequence (looked up) 2: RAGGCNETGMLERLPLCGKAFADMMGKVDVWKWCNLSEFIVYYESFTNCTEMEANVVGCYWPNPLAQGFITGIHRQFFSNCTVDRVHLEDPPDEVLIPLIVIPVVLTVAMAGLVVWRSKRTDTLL

| Binder | Human GLP-1R potency [EC50 (pM)] (human GLP-1 receptor) [pM] | Human AmyR3 potency [EC50 (pM)] [1] [pM] |
| --- | --- | --- |
| Compound 0629 (not fully specified (residue 21)) peptide: H[Aib]EGTFTSDVSK([AEEA-AEEA-γGlu-C16 diacid])YLEEQAARKFIEWLVRGAAEASELSTAALGRLSAELHELATLPRTETGSGSP-NH2 | 7.9 | 97.5 |
| Compound 0634 (peptide) peptide: H[Aib]EGTFTSDVSK([γGlu-γGlu-γGlu-γGlu-C16 diacid])YLEEQAARK([γGlu-γGlu-γGlu-γGlu-C16 diacid])FIAWLVRGRGEASELSTAALGRLSAELHELATLPRTETGSGSP-NH2 | 14.7 | 59.4 |
| Compound 0640 (peptide) peptide: H[Aib]EGTFTSDVSK([AEEA-AEEA-γGlu-C18 diacid])YLEEQAAREFIAWLVRGRGGGGGEASELSTAALGRLSAELHELATLPRTETGSGSP-NH2 | 2.3 | 6 |
| Compound 0630 (peptide) peptide: H[Aib]EGTFTSDVSK([Ahx-γGlu-γGlu-C16 diacid])YLEEQAARK([Ahx-γGlu-γGlu-C16 diacid])FIEWLVRGAAEASELSTAALGRLSAELHELATLPRTETGSGSP-NH2 | 7.1 | 110 |
| Compound 0657 (peptide) peptide: H[Aib]EGTFTSDVSSYLEEQAAREFIAWLVRGRK([εLys-εLys-γGlu-C20 diacid])GGGGEASELSTAALGRLSAELHELATLPRTETGSGSP-NH2 | 9.9 | 10.4 |
| Compound 0654 (peptide) peptide: H[Aib]EGTFTSDVSSYLEEQAAREFIAWLVRGRK([AEEA-AEEA-γGlu-Hexadecanoyl(16-SO3H)])GGGGEASELSTAALGRLSAELHELATLPRTETGSGSP-NH2 | 2.9 | 11.3 |
| Compound 0057 (peptide) peptide: H[Aib]EGTFTSDVSSYLEGQAAK([AEEA-AEEA-γGlu-C18 diacid])EFIAWLVRGRGGQEK([AEEA-AEEA-γGlu-C18 diacid])GQEPEASELSTAALGRLSAELHELATLPRTETGSGSP-NH2 | 59 | 165 |
| Compound 0637 (peptide) peptide: H[Aib]EGTFTSDVSSYLEEQAAREFIAWLVRGRK([AEEA-AEEA-γGlu-C18 diacid])GGGGSGGGEASELSTAALGRLSAELHELATLPRTETGSGSP-NH2 | 1.9 | 14.1 |
| Compound 0658 (peptide) peptide: H[Aib]EGTFTSDVSSYLEEQAAREFIAWLVRGRK([Ahx-Ahx-γGlu-C18 diacid])GGGGEASELSTAALGRLSAELHELATLPRTETGSGSP-NH2 | 3.1 | 11 |
| Compound 0655 (peptide) peptide: H[Aib]EGTFTSDVSSYLEEQAAREFIAWLVRGRK([AEEA-AEEA-γGlu-17‑(1H-tetrazol-5-yl)heptadecanoyl])GGGGEASELSTAALGRLSAELHELATLPRTETGSGSP-NH2 | 3 | 11.4 |
| Compound 0656 (peptide) peptide: H[Aib]EGTFTSDVSSYLEEQAAREFIAWLVRGRK([εLys-εLys-γGlu-C18 diacid])GGGGEASELSTAALGRLSAELHELATLPRTETGSGSP-NH2 | 4.1 | 13.3 |
| Compound 0071 (peptide) peptide: H[Aib]EGTFTSDVSSYLEGQAAK([AEEA-AEEA-γGlu-C18 diacid])EFIAWLVRGRGGQEPGQEPK([AEEA-AEEA-γGlu-C18 diacid])EASELSTAALGRLSAELHELATLPRTETGSGSP-NH2 | 69.4 | 159 |
| Compound 0633 (peptide) peptide: H[Aib]EGTFTSDVSSYLEEQAARK([γGlu-γGlu-γGlu-γGlu-C20 diacid])FIAWLVRGRGGGGGEASELSTAALGRLSAELHELATLPRTETGSGSP-NH2 | 28.2 | 5.3 |
